Laboratory results from paper PMC9008041.

Tests used:
[1] = target: recombinant N-terminal protein of MUC5B (NT5B) (human) (UniProt Q9HC84); assay: rate-zonal centrifugation on sucrose gradients; recombinant MUC5B sub-domain (NT5B, CT5B 400 μg/mL) incubated 1 h at 37 °C with 1 mM CsA, 5-20% (w/v) sucrose in PBS pH 7.4, 210,000 g, 15 °C, 2 h 30 min; protein detected by anti-His slot blot (NT5B, CT5B) or SDS-PAGE (Cys7)
[2] = target: recombinant C-terminal protein of MUC5B (CT5B) (human); assay: as above
[3] = target: purified polymeric mucin MUC5B (human) (UniProt Q9HC84); assay: rate-zonal centrifugation on sucrose gradients; purified polymeric mucin incubated 1 h at 37 °C with cyclic peptide (1 mM; CsA also 200 μM and 2 mM; MUC5B 100, 200 or 400 μg/mL), 10-35% (w/v) sucrose in PBS pH 7.4, 210,000 g, 15 °C, 1 h 15 min; mucin detected in fractions and pellet by slot blot; the peptide itself is not detected
[4] = target: purified polymeric mucin MUC5AC (human) (UniProt P98088); assay: as above
[5] = target: purified polymeric mucin MUC2 (human) (UniProt Q02817); assay: as above
[6] = target: purified polymeric mucin MUC5B (human) (UniProt Q9HC84); assay: rate-zonal centrifugation on sucrose gradients; purified MUC5B with 200 μM CsA in PBS at pH 5.5, compared with pH 7.4; 10-35% (w/v) sucrose; MUC5B detected by slot blot
[7] = target: recombinant N-terminal protein of MUC5B (NT5B) (human) (UniProt Q9HC84); assay: rate-zonal centrifugation on sucrose gradients; recombinant NT5B or CT5B with 200 μM CsA in PBS at pH 5.5, compared with pH 7.4; 5-20% (w/v) sucrose; detected by anti-His slot blot

Question: For cyclosporin A (peptide), which percent of NT5B in the pellet (1 mM CsA) [1] is on record?
Answer: Its percent of NT5B in the pellet (1 mM CsA) is 16.3%.

Question: What about the percent of CT5B in the pellet (1 mM CsA) [2] of the same substance?
Answer: The percent of CT5B in the pellet (1 mM CsA) was 29.1%.

Question: What about the percent of MUC5B in the pellet (1 mM CsA, MUC5B 100 μg/mL) [3] of the same substance?
Answer: Its percent of MUC5B in the pellet (1 mM CsA, MUC5B 100 μg/mL) is 18.6%.

Question: What about the percent of MUC5B in the pellet (1 mM CsA, MUC5B 200 μg/mL) [3] of the same substance?
Answer: Its percent of MUC5B in the pellet (1 mM CsA, MUC5B 200 μg/mL) is 13.3%.

Question: What about the percent of MUC5B in the pellet (2 mM CsA, MUC5B 200 μg/mL) [3] of the same substance?
Answer: The percent of MUC5B in the pellet (2 mM CsA, MUC5B 200 μg/mL) was 11.8%.

Question: And the percent of MUC5AC in the pellet (1 mM CsA) [4]?
Answer: Its percent of MUC5AC in the pellet (1 mM CsA) is 8.2%.

Question: What about the percent of MUC2 in the pellet (1 mM CsA) [5] of the same substance?
Answer: Its percent of MUC2 in the pellet (1 mM CsA) is 14.6%.

Question: And the fold increase of MUC5B in the pellet at pH 5.5 against pH 7.4 (200 μM CsA) [6]?
Answer: The fold increase of MUC5B in the pellet at pH 5.5 against pH 7.4 (200 μM CsA) was 3.6 fold.

Question: What about the fold increase of NT5B in the pellet at pH 5.5 against pH 7.4 (200 μM CsA) [7] of the same substance?
Answer: The fold increase of NT5B in the pellet at pH 5.5 against pH 7.4 (200 μM CsA) was 4.2 fold.
